Reference: the supplement of paper PMC10567573

B1: PDS5B (parent)
chain: IYKKYALQSAAGKDAAKQIAWIKD
B2: TSN (parent)
chain: FLAAEQDIREEIRKVVQSLEQTAR

Variants of: B1
Test: protein stability index of a GFP-peptide fusion (GPS, HEK-293T) (PSI 1-6); higher = more stable
Conditions: c terminus: a fixed tail appended
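Also: lentivirally expressed fusions sorted by FACS into six bins by GFP to DsRed ratio, PSI derived from sequencing read proportions per bin multiplied by bin number.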

In order of falling protein stability index:
1. Y2M  4.12
2. Y2E  3.9
3. I1E  3.79
4. Y5D  3.79
5. Y2D  3.75
6. I1D  3.71
7. Y5P  3.63
8. K3D  3.43
9. Y2G  3.38
10. I1H  3.36
11. Y5T  3.36
12. Q8F  3.35
13. S9D  3.27
14. K4D  3.24
15. I1Q  3.23
16. A6E  3.2
17. I1C  3.19
18. Y2P  3.19
19. L7D  3.16
20. G12D  3.13
21. I1T  3.11
22. Y5E  3.09
23. L7Q  3.06
24. A11D  3.03
25. A6P  3.02
26. Y2H  3.02
27. Y5Q  2.99
28. Y2N  2.98
29. Y2T  2.98
30. Y2C  2.96
31. K3W  2.95
32. K13A  2.93
33. K3I  2.93
34. Y5N  2.93
35. Y5K  2.93
36. K13Y  2.92
37. L7P  2.92
38. A16G  2.92
39. A15G  2.9
40. Y5V  2.89
41. A6G  2.88
42. K3E  2.88
43. Y2K  2.87
44. A6Q  2.85
45. Y2S  2.84
46. Y5G  2.82
47. A16E  2.82
48. I1G  2.81
49. L7N  2.81
50. S9Q  2.79
51. Y5A  2.78
52. I1P  2.77
53. K13R  2.77
54. A15K  2.76
55. L7E  2.76
56. I1K  2.75
57. A16D  2.75
58. G12P  2.74
59. S9E  2.73
60. A15S  2.73
61. D14R  2.72
62. Q8P  2.72
63. K4P  2.71
64. K4T  2.7
65. Q8I  2.7
66. A15E  2.7
67. A11Q  2.69
68. K4N  2.68
69. K4E  2.68
70. L7S  2.68
71. Q8E  2.67
72. K3P  2.65
73. A11G  2.65
74. Y5S  2.65
75. A15L  2.64
76. I1S  2.63
77. G12W  2.63
78. L7T  2.63
79. I1A  2.62
80. I1V  2.61
81. K4G  2.61
82. A11N  2.61
83. K13D  2.6
84. K4Q  2.6
85. L7H  2.6
86. K3R  2.56
87. A15P  2.56
88. K13E  2.55
89. A6R  2.55
90. L7K  2.55
91. A10D  2.53
92. I1R  2.5
93. A15N  2.5
94. Y2Q  2.5
95. L7A  2.5
96. A11K  2.5
97. A6S  2.49
98. A6F  2.49
99. K3S  2.48
100. A16I  2.47
101. Y5H  2.46
102. K4I  2.44
103. S9M  2.44
104. A11E  2.43
105. Y5R  2.43
106. A10T  2.42
107. L7G  2.42
108. I1N  2.41
109. K13P  2.4
110. A10Q  2.4
111. K3L  2.4
112. Q8A  2.4
113. A6T  2.39
114. K4H  2.39
115. A10E  2.38
116. S9H  2.38
117. Y2R  2.38
118. A10S  2.36
119. K3H  2.36
120. Y5L  2.36
121. Q8K  2.35
122. A15D  2.35
123. A15T  2.35
124. D14P  2.34
125. G12E  2.34
126. Y2L  2.34
127. K3Q  2.33
128. A16K  2.33
129. A10L  2.32
130. A6D  2.32
131. K4F  2.32
132. Y2W  2.32
133. Y2A  2.32
134. L7M  2.32
135. L7V  2.32
136. K13T  2.3
137. L7R  2.3
138. A11S  2.3
139. K13H  2.29
140. S9R  2.29
141. A15Q  2.29
142. A11V  2.29
143. A16H  2.29
144. K13S  2.28
145. D14K  2.28
146. K13N  2.27
147. K3N  2.27
148. Q8D  2.27
149. Y2V  2.27
150. A11P  2.27
151. A10P  2.26
152. K3A  2.26
153. Y5I  2.26
154. K4R  2.25
155. Q8S  2.25
156. D14G  2.24
157. K3G  2.24
158. K4S  2.23
159. K13G  2.22
160. A15H  2.22
161. Q8R  2.21
162. S9N  2.2
163. D14N  2.19
164. A10N  2.19
165. K3Y  2.19
166. G12N  2.19
167. A6N  2.18
168. A6K  2.18
169. K13M  2.17
170. Q8V  2.17
171. S9P  2.17
172. S9G  2.17
173. K13I  2.16
174. S9A  2.16
175. A16C  2.16
176. D14Q  2.15
177. D14S  2.15
178. K3T  2.15
179. K3F  2.15
180. A11T  2.15
181. I1W  2.14
182. K13L  2.14
183. K4A  2.13
184. S9V  2.13
185. I1L  2.12
186. A6I  2.12
187. I1Y  2.1
188. K13Q  2.1
189. D14E  2.1
190. D14M  2.1
191. D14V  2.1
192. D14W  2.1
193. A10V  2.1
194. A15R  2.09
195. I1M  2.08
196. G12V  2.08
197. D14F  2.07
198. Q8N  2.06
199. Q8M  2.06
200. S9T  2.06
201. L7Y  2.04
202. Q8G  2.01
203. K13V  2
204. A10K  2
205. A6W  2
206. S9C  2
207. S9F  2
208. G12F  1.99
209. S9W  1.99
210. Y5W  1.98
211. A6H  1.97
212. G12S  1.96
213. K4M  1.95
214. L7I  1.95
215. K13C  1.94
216. D14T  1.94
217. K13F  1.93
218. S9I  1.93
219. L7C  1.93
220. Q8W  1.92
221. Y5F  1.92
222. Y5M  1.91
223. D14A  1.9
224. A10I  1.89
225. A15C  1.89
226. G12R  1.88
227. S9K  1.87
228. D14H  1.86
229. A6L  1.86
230. G12A  1.86
231. D14Y  1.85
232. A6C  1.85
233. Q8L  1.85
234. K13W  1.84
235. A10H  1.84
236. K4Y  1.84
237. Q8T  1.84
238. G12L  1.84
239. A10M  1.83
240. Q8H  1.83
241. A15M  1.83
242. D14I  1.82
243. A6V  1.82
244. A11W  1.82
245. A6M  1.8
246. A11Y  1.8
247. A11L  1.8
248. A11M  1.78
249. A10W  1.77
250. Y2I  1.77
251. S9L  1.76
252. A16F  1.76
253. A10Y  1.75
254. K4L  1.75
255. K3V  1.75
256. G12K  1.75
257. S9Y  1.75
258. A15F  1.75
259. A11R  1.75
260. A11H  1.75
261. A11F  1.75
262. Y5C  1.75
263. A11I  1.73
264. A10C  1.72
265. K3M  1.72
266. A10G  1.71
267. G12T  1.71
268. A15V  1.71
269. Q8Y  1.69
270. G12I  1.69
271. A15I  1.69
272. L7W  1.69
273. I1F  1.68
274. D14L  1.68
275. L7F  1.68
276. G12H  1.67
277. Y2F  1.67
278. G12Y  1.64
279. K4C  1.61
280. G12C  1.6
281. G12Q  1.58
282. A11C  1.58
283. K4V  1.55
284. A6Y  1.52
285. K3C  1.51
286. A15Y  1.45
287. A15W  1.43
288. A10F  1.37
289. A10R  1.37
290. D14C  1.36
291. K4W  1.35
292. Q8C  1.29

Variants of: B2
Test: as above
Conditions: c terminus: a fixed tail appended

In order of rising protein stability index:
1. R24H  1.47
2. A23D  1.57
3. R24W  1.69
4. R24V  1.7
5. R24K  1.7
6. R24Q  1.74
7. A23K  1.75
8. A23T  1.76
9. A23N  1.8
10. A23S  1.8
11. T22Y  1.81
12. R24C  1.82
13. A23M  1.87
14. A23R  1.87
15. A23Y  1.88
16. R24Y  1.94
17. A23Q  1.96
18. T22S  1.98
19. A23C  1.99
20. R24F  2.07
21. R24T  2.08
22. A23W  2.1
23. A23H  2.11
24. A23V  2.13
25. R24E  2.13
26. A23P  2.15
27. R24S  2.16
28. R24G  2.18
29. A23F  2.19
30. A23G  2.21
31. R24N  2.21
32. R24A  2.26
33. R24P  2.28
34. T22W  2.32
35. A23L  2.34
36. R24D  2.4
37. R24L  2.49
38. A23I  2.52
39. T22V  2.55
40. A23E  2.68
41. R24M  2.68
42. R24I  3.12
